The supplement of paper PMC10567573

B1: BEX1 (parent)
chain: EENMERIGEEVRQLMEKLREKQLS
B2: PBXIP1 (parent)
chain: EKQKQPRWREGTKDSHDPLPSWAE

Variants of: B1
Experiment: protein stability index of a GFP-peptide fusion (GPS, HEK-293T) (PSI 1-6); higher = more stable
Conditions: c terminus: a fixed tail appended
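Further: lentivirally expressed fusions sorted by FACS into six bins by GFP to DsRed ratio, PSI derived from sequencing read proportions per bin multiplied by bin number.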

Protein stability index, by site and new letter:
L23: H 4.65; M 4.1; V 3.88; T 5.19; Q 4.97; D 5.21; S 3.89; Y 5.23; I 5.26; A 4.63; C 4.73; W 4.68; E 4.46; F 4.58
Q22: G 4.18; W 2.28; T 3.59; C 2.46; P 3.67; M 1.08; A 2.82; S 3.92; D 4.73; N 5.16
S24: F 4.32; T 4.29; W 3.99; G 4.78; Q 4.95; I 3.97; K 3.54; L 4.21; M 4.43; Y 3.91; C 4.8; V 4.67; D 4.91
K21: I 3.7; Y 3.04; N 4.61; S 4.25; W 4.07; F 4.64; T 5.02; C 1.67; Q 4.53; D 4.97; E 3.26; A 4.11; H 3.15
R19: N 5.13; Y 3.92; T 4.76; F 3.95; K 4.74; S 4.21; H 5.32; L 2.82; P 5.54
E20: R 4.46; H 3.74; L 4.29; S 4.57; F 2.75; W 2.19

Variants of: B2
Experiment: as above
Conditions: c terminus: a fixed tail appended

Protein stability index, by site and new letter:
D17: P 1.94; C 3.64; S 1.86; T 1.43; R 2.27; K 1.24; N 1.97; V 3.08; Y 1.5; A 1.39; I 1.48
K4: N 2.02; T 1.92; D 1.72; V 1.21; C 2.63; I 3.8; H 2.66; Q 1.92; P 1.56; S 1.85; R 2.07; M 1.54; Y 3; F 1.99; E 1.59
S21: I 2.56; W 4.58; L 2; E 3.19; T 2.62; M 2.6; V 2.68; Q 3.03; D 4.6; N 2.01; Y 3.67; H 3.27; F 2.54; K 1.75
S15: M 3.08; A 2.65; C 2.95; Q 1.8; N 1.63; P 1.26; W 1.54; L 1.27; D 1.84; T 1.96; E 1.37; G 1.68; K 2.02
T12: L 2.31; F 1.33; Y 1.01; K 2.38; I 2.34; E 1.61; H 2.89; M 2.69
K13: N 2.35; C 1.28; H 2.96; Q 1.29; D 2.18
Q5: G 1.99; R 2.57; C 3.72; N 2.1; L 1.82; Y 2.37; F 2.09; E 2.66; M 1.55; H 2.11; D 1.99
E24: P 4.12; R 3.34; L 3.02; T 2.39; S 2.34; H 3.29; C 2.66; A 2.62; I 3.06; Y 3.09; D 1.9; N 3.02; M 3.16; W 1.95
E1: K 2.33; P 1.22; T 2.38; A 2.67; I 2.16; F 1.4; C 2.08; L 2.19; Q 2; H 2.64
P6: L 2.79; A 1.3; W 1.98; F 2.43; C 1.48; Y 3.67; G 2.11; H 2.53; E 1.89; T 3.31
P20: D 1.79; M 1.31; H 2.22; N 1.88; Q 2.45; F 1.52; W 1.44; Y 1.75; A 2.13; K 2.66; I 2.48
L19: N 2.49; R 2.86; E 3.44; P 1.73; D 1.99; G 2.56; K 1.68; S 1.77; T 2.27; H 2.63
Q3: N 2.58; G 2.03; L 1.59; C 2.21; Y 1.32; V 1.34; W 1.41; S 1.55; R 2.14; H 1.78
E10: D 3; K 2.34; G 1.05; W 1.53; Q 1.83; L 1.96; R 2.2; C 2.32; A 1.14; S 1.18; F 2.27; T 3.55; I 2.1
K2: P 1.77; R 2.02; E 3.03; G 2.97; N 1.46; F 1.85; D 2.04; C 2.96; Y 2.81; S 2.15; W 1.43; I 2.63; Q 2.69
P18: M 1.88; H 1.75; T 1.87; D 1.75; N 1.92; Q 1.96; S 1.29; Y 1.95; V 3.04
D14: F 1.46; P 1.83; T 1.8; Y 2.35; C 1.1; M 1.96; K 2.66; Q 1.87
R9: M 2.35; D 1.76; E 3.15; H 1.04; L 2.48; Q 1.34; W 1.66; S 1.39; T 2.17; P 1.84; K 2.32; C 1.39; A 1.79
A23: H 4.04; Y 4.24; N 4.99; T 2.08; K 4.51; P 3.89; F 3.56; Q 2.26; M 3.36; W 2.76; L 4.81
W8: V 2.05; C 2.31; K 2.46; D 3.2; H 2.41; M 2; A 2.09; E 3.08; I 2.06; N 3.03; T 1.58
W22: K 5.42; D 5.82; S 4.78; I 5.01; H 5.32; R 5.4; L 3.24; N 5.48; E 5.99; T 5.07; Q 5.57; P 5.49
H16: I 1.98; V 1.69; P 2.26; K 1.93; Y 1.39; E 3.06; W 1.37; D 2.05; M 1.07; N 2.85; S 2.56
G11: H 3.13; L 2.31; Q 1.68; D 2.02; S 2.61; F 2.88; R 1.46; Y 1.98; M 2.78; I 1.69
R7: A 1.59; H 2.05; D 2.47; M 1.94; C 5.92; P 2.33; K 2.02; W 2.53; N 3.14; L 1.32; F 2.54; S 1.23; G 2.14; I 1.96; T 1.57; Y 1.47
